Source: the supplement of paper PMC9170038

Test system: MS2 coat protein
Test: apparent KD of MS2 coat protein; designed switch direction (-1 OFF switch, 1 ON switch): -1; higher = weaker reporter binding
How it was run: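 SNAP-549-labelled MS2 coat protein was titrated, doubling from 0.7 or 1.5 nM to 3 µM, over designed RNA switches transcribed on Illumina chips by stalled E. coli RNA polymerase. Runs were done without input, with 200 uM small-molecule ligand, or with an oligonucleotide input. Apparent KD is the per-design median over clusters of curve-fitted normalised fluorescence.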

[1] = Eterna round: R95, input ligand: FMN 200 uM
[2] = Eterna round: R95, input ligand: none
[3] = input ligand: microRNA oligo, concentration not stated
[4] = Eterna round: R95, input ligand: microRNA oligo, concentration not stated

Sequence | apparent KD of MS2 coat protein [1] [nM] | apparent KD of MS2 coat protein [2] [nM] | apparent KD of MS2 coat protein [3] [nM] | apparent KD of MS2 coat protein (input ligand: FMN 200 uM) [nM] | apparent KD of MS2 coat protein (input ligand: none) [nM] | apparent KD of MS2 coat protein [4] [nM]
UGUUGUUGUUUCCGUUCUUACAUGAGGAUCACCCAUGUUUCUUGUCGUGCUCGCGUUGCUCGUCAGACUACCUGUUG [salish99_TOv1_r3_065] (puzzle: Sensor v3, turn-off variant 1) | 93.4 | 151 | – | – | – | –
UUAAAUCAUGUAGGAUAUGCGUGGAGAAACUAUGCAGAAGGACAUGAGGAUCACCCAUGUGCUUCCGUCUGCGUACAGAUGGUA [Mat - Exclusion NG 1 - Mod of JL - D8] (Eterna round: R96, puzzle: Exclusion NG 1) | – | – | 21.1 | – | – | –
UUAAAUCAUGUAGGAUAUGCGUGGCAAAGCUAUGCAGAAGGACAUGAGGAUCACCCAUGUUCUAGCGUCUGAGAACAGAUGCUA [Mat - Exclusion NG 1 - Mod of JL - D78] (Eterna round: R96, puzzle: Exclusion NG 1) | – | – | 24.2 | 566 | 47.7 | –
UUAAAUCAUGUAGGAUAUGCGUGGCGAAGCUAUGCAGAAGGACAUGAGGAUCACCCAUGUGCUGCGGUCUGCGUACAGAUCGCU [JL ENG1 1.03] (Eterna round: R96, puzzle: Exclusion NG 1) | – | – | 76.4 | 98.7 | 142 | –
UUAAAUCAUGUAGGAUAUGCGUGGCGAAGCUAUGCAGAAGGACAUGAGGAUCACCCAUGUUCAUCCGUCUGCGUACAGAUGGAA [JL Eng1 1.08 mod 1] (Eterna round: R96, puzzle: Exclusion NG 1) | – | – | 21.6 | 271 | 28.2 | –
UUAACAUGCUGGUGAUCAUACAUGAGGAUCACCCAUGUAACAAGCUUUUUGCUCGUCUUAUAAGAUCACCAGCAUGU [Stov1/9-A1] (Eterna round: R97, puzzle: Sensor, turn-off variant 1) | – | – | – | 14.7 | 12.2 | –
UUAACGUCAGGAUAUGCUUAAUAUAUUAUAUUAUAAUAUAUACAUGAGGAUCACCCAUGUAGAAGGGACAUUAU [LRO-Excl2-02-Fireball XL5] (Eterna round: R97, puzzle: Exclusion 2) | – | – | – | 34.1 | 52.1 | –
UUAAUACAUGUAGGAUAUGCGUGGCGAAGCUAUGCAGAAGGACAUGAGGAUCACCCAUGUUCUAGCGUCCGCGUACGGAUGCAA [JL Eng1 1.21 mod 9] (Eterna round: R96, puzzle: Exclusion NG 1) | – | – | 12 | 16.4 | 14.8 | –
UUAAUAGCAGCGAGAUCCCACAUGAGGAUCACCCAUGUCGUAGACGAAAAGUCUACGUUAGCUCGUCUUAUAAAUAU [Winner reversed engineered 39] (Eterna round: R97, puzzle: Sensor, turn-off variant 1) | – | – | – | 95.1 | 111 | –
UUAAUGUGAGGAUAUCAGGUGUGAUAGAGUAAUGGUAAAUCUGAGAAGGCACAUGAGGAUCACCCAUGUUCUUC [Mat - Exclusion 4 - Mod of JL - D58] (puzzle: Exclusion 4) | – | – | – | – | – | 21.5
UUAAUUAAUUGACUGCAAGAUCAACAUGAGGAUCACCCAUGUGAGGAUAUCAGCUCGUUUAGAGCUGAGAAGGCACAAGCAGUC [ExNG3/16-A2] (Eterna round: R96, puzzle: Exclusion NG 3) | – | – | 16.7 | 53.6 | 17.6 | –
UUAAUUAAUUUAAUAUAAGAUCACAUGAGGAUCACCCAUGUAUAGGAUAUCAGCUCGUUUAGAGCUGAGAAGGAUACAUAAUAU [ExNG3/2-B2] (Eterna round: R96, puzzle: Exclusion NG 3) | – | – | 328 | 292 | 230 | –
UUAAUUAGCUCGCUAGAUCCUCACAUGAGGAUCACCCAUGUGCAGGAUAUCAGCUCGUUUAGAGCUGAGAAGGGCACUGCGAGC [ExNG3/10-A2] (Eterna round: R96, puzzle: Exclusion NG 3) | – | – | 120 | 147 | 114 | –
UUACAAUGUCGCUUAUAAGCUUUUUGCUCGUCUUAUAUUACAUGAGGAUCACCCAUGUAGAUCAUGUGGCGUGACCU [JL ViennaUCT Maridi mod 8] (puzzle: Sensor v3, turn-off variant 2) | 264 | 345 | – | – | – | 47.9
UUACGGCGGAUCGUGGCUUUUUGCUCGUCUUGUGCUACAACAUGAGGAUCACCCAUGUAGAGGUGAUCCGUUGUAUU [Grok-var2-19 mod JAL] (Eterna round: R96, puzzle: Sensor v3, turn-off variant 2) | – | – | 13.4 | 342 | 740 | –
UUACGGCGGAUCGUGGCUUUUUGCUCGUCUUGUGCUACAACAUGAGGAUCACCCAUGUAGAGGUGAUCCGUUGUAUU [Grok-var2-19 mod JAL] (puzzle: Sensor v3, turn-off variant 2) | 92.4 | 120 | – | – | – | 22.3
UUAGAUAGGUCAGGAUAUCGAUGAUUGAAUUGUAUGAUUUACAUGAGGAUCACCCAUGUUUUGUACGAGAAGGGACGUUAGUUU [JR_ExcNG2_Sub019] (Eterna round: R96, puzzle: Exclusion NG 2) | – | – | 26.1 | 25.3 | 33.5 | –
UUAGCUUCAGGAUAUACAGUGGGCUGGGAUCUAAAGAUCAAACAUGAGGAUCACCCAUGUAGAAGGGAACGGAA [Eternabot (L2) Solution 32] (Eterna round: R97, puzzle: Exclusion 2) | – | – | – | 380 | 145 | –
UUAGUUGGAGGAUAUACGCCGUUUGACAUGAGGAUCACCCAUGUAGAGGCUUAUGUCAAUGUAGAAGGCCGUUUGG [Eternabot (L2) Solution 12] (Eterna round: R97, puzzle: Exclusion 5) | – | – | – | 26.3 | 18.7 | –
UUAUAAAGUGUGAGGAUAUGCUGGUCGAUAGAUCAGCAGAAGGCACAUGAGGAUCACCCAUGUAAUAUAUUUUU [Mat - Exclusion 4 - JL Mod - D44] (puzzle: Brourd's mod of Exclusion 4) | – | – | – | – | – | 45.1
UUAUGGCGAGAGGAUAUUCUGCUACGGCCCGGAGAAGAAGGUUUGACAUGAGGAUCACCCAUGUGGUCGCUCCU [Eternabot (L2) Solution 29] (Eterna round: R97, puzzle: Exclusion 6) | – | – | – | 138 | 238 | –
UUAUGUGCGAGAGGAUAUCGUGUACAAAGUACACGAGAAGGCUUCACAUGAGGAUCACCCAUGUACCGAGGUGAAACACCUUGA [Omei Exc(NG)1 Bv7] (Eterna round: R96, puzzle: Exclusion NG 1) | – | – | 476 | 660 | 887 | –
UUAUUAAUUAAGACUGCAAGAUCACAUGAGGAUCACCCAUGUCAGGAUAUCAGCUCGUGUAGAGCUGAGAAGGGACAAGCAGUC [ExNG3/15-A3] (Eterna round: R96, puzzle: Exclusion NG 3) | – | – | 97.5 | 314 | 123 | –
UUAUUACAAGCAAGAUCCUACAUGAGGAUCACCCAUGUGCUCGUCUUAUAAGGUACAGUGACGAAAGUCACAGUACC [Sensor 3, v1 - 00] (puzzle: Sensor v3, turn-off variant 1) | 204 | 221 | – | – | – | 138
UUAUUAUAUGAAGGAUAUACUUAACAUGAGGAUCACCCAUGUGGUGUUGUGAGUGAGUGAGUUUAGUAGAAGGUCAAUUCUUUU [JMF's solution 93] (Eterna round: R96, puzzle: Exclusion NG 2) | – | – | 418 | – | – | –
UUAUUAUAUGUAGGAUAUGCAUAUUAUUAUUAUGCAGAAGGACAUGAGGAUCACCCAUGUAUAUUAUUAUUAUAUAUUAUGUAU [Title] (Eterna round: R96, puzzle: Exclusion NG 1) | – | – | 27.5 | – | – | –
UUAUUCAGAGGAUAUGCGCAUAGAUAAGACUUUUUUUCUUAACAUGAGGAUCACCCAUGUAGAAGGCUGUAAUA [Ex2 #57] (Eterna round: R97, puzzle: Exclusion 2) | – | – | – | 19.8 | 18.4 | –
UUAUUGGUUGUGAGGAUAUCGGAUAGAUAGAUAUUCGAGAAGGCACAUGAGGAUCACCCAUGUGUGAUUAGAAA [JR_BMEx4_Sub048] (Eterna round: R97, puzzle: Brourd's mod of Exclusion 4) | – | – | – | 193 | 25.9 | –
UUAUUGUGUGUAGGAUAUGCGUGUUAUUAUUAUGCAGAAGGACAUGAGGAUCACCCAUGUGUAUUGUUAUUAUAUAUUAUAUAU [Title] (Eterna round: R96, puzzle: Exclusion NG 1) | – | – | 21.2 | 48.2 | 27 | –
